For the experiment, the system named is rat model of pulmonary hypertension induced by monocrotaline. The experiment can be described thus: rat model of pulmonary hypertension induced by monocrotaline. In kind it is in vivo, rat (Sprague Dawley). How it is done:
To further evaluate the effect of anti-Activin A antibodies in pulmonary arterial hypertension, a rat model of pulmonary hypertension induced by monocrotaline was used.
Six to seven week old Sprague Dawley rats were used. Rats were separated into treatment groups such that body weights were similar among different groups. Rats were subcutaneously administered either 40 mg/kg of monocrotaline or 5 mL/kg of saline at day 0. At 14 days post injection, saline-injected rats were orally dosed with PEG 400 (at 50:50 v/v, Affymetrix Inc., #19957) at 5 mL/kg daily for two weeks, and monocrotaline-injected rats were separated into 5 groups with a group (n=9) orally dosed with PEG 400 at 5 mL/kg daily for two weeks, another group (n=12) orally administered macintentan at 30 mg/kg daily for two weeks, and three groups that were both orally dosed with PEG 400 at 5 mL/kg daily for two weeks and subcutaneously treated with either anti-Activin A antibodies, H4H10430P (n=9), H4H10446P2 (n=11), or an isotype control antibody (n=10) at 40 mg/kg twice a week for two weeks.
At day 27, pulmonary artery size and right ventricular function and dimensions of the rats were assessed using a high frequency ultrasound system (Vevo 2100, VisualSonics). For the assessment, rats were anesthetized (with 1.5% isoflurane at a rate of 1.0 cc/mL of medical grade air) and their temperature was monitored with a rectal temperature probe and held at approximately 37° C. with a heated platform (Vevo 2100, Visualsonics) and a warming lamp. Both brightness-mode (B-mode) and motion-mode (M-mode) imaging were used. B-mode imaging of the rat heart in cross-section was used to determine pulmonary artery cross-sectional area (PA CSA) at the level of the pulmonary valve. […] was used to determine the pulsed wave velocity time integral (VTI), which is derived from the area under the curve of representative Doppler tracings of blood flow through the pulmonary artery. Right ventricular stroke volume (RV SV) was calculated from the product of PA CSA and VTI. Right ventricular cardiac output (RV CO) was calculated from the product of SV and heart rate (HR). M-mode imaging was used to determine right ventricular free wall (RVFW) thickness during diastole and systole. […]
Right ventricular pressure was subsequently assessed for all treatment groups. […] The catheter was connected to pressure/volume instrument (MPVS-300, Millar Instruments, Inc.) that measured heart rate as well as both diastolic and systolic right ventricular pressures. […] Readings were quantified from a 60 second interval of the pressure tracing (following a 2 minute period of recording to allow for pressure stabilization). The parameters analyzed were RV diastolic and systolic pressures, heart rate and ventricular contractile function. […]

[1] abbreviates: monocrotaline 40 mg/kg SC day 0, antibodies 40 mg/kg SC 2x/wk, macitentan 30 mg/kg PO daily from day 14 for two weeks, ultrasound day 27.

These results are taken from patent US20180008672A1, “ANTI-ACTIVIN A ANTIBODIES AND METHODS OF USE THEREOF FOR TREATING PULMONARY ARTERIAL HYPERTENSION” (Regeneron Pharmaceuticals, Inc., priority 2016, published 2018).

B1: H4H10430P: fully human anti-Activin A antibody, human IgG4 Fc; HCVR/LCVR SEQ ID NOs 66/74 (antibody, V domains shown)
VH: EVQLVESGGGLVQPGRSLRLSCKASGFAFDDFAMHWVRQAPGKGLEWVSGIVWNSGDIGYADSVKGRFTISRDNAKNSLYLQLNSLRTEDTALYFCVKDMVRGLMGFNYYGMDVWGQGTTVTVSS
VL: EIVLTQSPATLSLSPGERATLSCRASQTISTYLVWYRQRPGQAPSLLIYDASNRATDIPARFSGSGSGTDFTLTISSLEPEDFAVYYCQQRSNWPITFGQGTRLEIK
In the case of B1, under setting [1], the “PA CSA (Ave ± SEM)” value was found to be 9.439 ± 0.516%% mm^2; the “Right Ventricular cardiac output (Ave ± SEM)” value is listed as 130.0 ± 12.5 mL/min; the “Stroke Volume (Ave ± SEM), right ventricular” value worked out at 362.8 ± 32.6 µL. In addition, the “effect on PA CSA (in words)” value (monocrotaline-injected rats, FIG. 3A) is listed as “restored PA CSA to values measured for saline-injected PEG 400 dosed rats”.
